The values that follow come from article PMC9315497, “Structural Analysis of Ino2p/Ino4p Mutual Interactions and Their Binding Interface with Promoter DNA”.

The target of series [1] is T1, Ino2pDBD WT;Ino4pDBD WT (Saccharomyces cerevisiae (genomic DNA …, UniProt P26798;P13902 230-304;40-117, |)).
T1 sequence 1: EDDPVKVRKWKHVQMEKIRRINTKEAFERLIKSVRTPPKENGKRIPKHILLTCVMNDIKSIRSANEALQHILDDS
T1 sequence 2: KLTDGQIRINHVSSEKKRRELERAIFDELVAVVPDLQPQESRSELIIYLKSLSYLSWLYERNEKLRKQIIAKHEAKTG
The experiment in a line: EMSA; 20 mM Tris-HCl pH 8.0, 100 mM NaCl (buffer B); EMSA 1.5 uM DNA, 1.5-150 uM protein, 1 h on ice; ITC at 10 C, 400 uM DNA into 20 uM protein. To be noted: protein: recombinant;recombinant, tags: N-terminal His6;none (with His-Ino2p), copies: 1;1. (In general: Mobility shift assays separate free from complexed probe on a gel.)

A further series deals with T2, Ino2pDBD WT;Ino4pMut (Saccharomyces cerevisiae (genomic DNA …, UniProt P26798;P13902 230-304;40-117, |H50A;E54A;R57A;R58A)).
T2 sequence 1: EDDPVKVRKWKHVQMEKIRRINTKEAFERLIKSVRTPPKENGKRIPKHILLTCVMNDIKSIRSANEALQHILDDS
T2 sequence 2: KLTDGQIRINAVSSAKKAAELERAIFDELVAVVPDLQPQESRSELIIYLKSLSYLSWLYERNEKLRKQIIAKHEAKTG
The experiment in a line: ITC; 10 C; 20 mM Tris-HCl pH 8.0, 100 mM NaCl (buffer B); EMSA 1.5 uM DNA, 1.5-150 uM protein, 1 h on ice; ITC at 10 C, 400 uM DNA into 20 uM protein. To be noted: protein: recombinant;recombinant; tags: N-terminal His6;none; copies: 1;1; 14 bp with 5' overhang 1 nt at each end. On the technique in general: Isothermal titration calorimetry measures the heat released or taken up as one component is titrated into another.

The target in a further series is T3, Ino2pMut;Ino4pDBD WT (Saccharomyces cerevisiae;Saccharomyces …, UniProt P26798;P13902 230-304;40-117, H241A;E245A;R249A;R273A|).
T3 sequence 1: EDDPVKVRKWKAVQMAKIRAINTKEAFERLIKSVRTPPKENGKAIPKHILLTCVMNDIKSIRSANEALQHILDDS
T3 sequence 2: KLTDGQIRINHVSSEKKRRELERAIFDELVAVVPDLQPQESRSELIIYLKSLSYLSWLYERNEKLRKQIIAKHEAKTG
The series is described as above. To be noted: protein: recombinant;recombinant; tags: N-terminal His6;none (with His-Ino2p); copies: 1;1; 14 bp with 5' overhang 1 nt at each end.

Series [2] concerns the target T1, Ino2pDBD WT;Ino4pDBD WT. The description is as above. The note with it: protein: recombinant;recombinant; tags: N-terminal His6;none (with His-Ino2p); copies: 1;1; 14 bp with 5' overhang 1 nt at each end.

B1: 19bp-FAM promoter DNA (dsDNA)
DNA 1: GAATTTTCACATGCAGATC
DNA 2: GATCTGCATGTGAAAATTC
Take B1: the binding result with Ino2pDBD WT;Ino4pDBD WT [1] (label: 5'-FAM on sense strand, blunt) is reported as “binds”.

B2: Flanking mutant promoter DNA (dsDNA)
DNA 1: GAGGGTCACATGCAG
DNA 2: CTGCATGTGACCCTC
With B2, in the series with Ino2pDBD WT;Ino4pDBD WT [1], the binding result is given as “binds”.

B3: 15bp-GC promoter DNA (dsDNA)
DNA 1: GATTTTCACATGCAG
DNA 2: CCTGCATGTGAAAAT
On to B3, for which the binding result in the series with Ino2pDBD WT;Ino4pMut and with Ino2pMut;Ino4pDBD WT was “no binding” each time. For the same molecule, in the series with Ino2pDBD WT;Ino4pDBD WT [2], the dissociation constant Kd (as a rule, the concentration at which binding is half-saturated) is 749 nM.
